These results are taken from patent publication US20240059760A1 (UNIVERSITY OF CHICAGO, published 2024).

Numbering of substitutions follows the chain as printed. Like-named read-outs stand apart in the source and are kept apart here.

Experiment [1] has as its target T1, Receptor Binding Domain (RBD) of SARS-CoV-2 S protein (SARS-CoV-2, UniProt P0DTC2 319-541).
Experiment [2] deals with T1, Receptor Binding Domain (RBD) of …. This is another data set of the same source.

B1: sRBD7 Fab (Fab, V domains shown)
VH: EVQLVESGGGLVQPGGSLRLSCAASGFNVYSSYIHWVRQAPGKGLEWVAYISPYYGSTYYADSVKGRFTISADTSKNTAYLQMNSLRAEDTAVYYCARYWSYGGMDYWGQGTLVTVSS
VL: DIQMTQSPSSLSASVGDRVTITCRASQSVSSAVAWYQQKPGKAPKLLIYSASSLYSGVPSRFSGSRSGTDFTLTISSLQPEDFATYYCQQYYYGALITFGQGTKVEIKR
By Kd is commonly meant the concentration at which binding is half-saturated. As a reminder, the koff is the first-order rate constant of dissociation. Usually kon stands for a measure of how fast the partners come together. Higher therefore signals faster complex formation. Regarding B1, in experiment [1], the Kd came out at 2.55 nM, the koff worked out at 0.00029 s⁻¹ and the kon came to 150000 M⁻¹ s⁻¹.

B2: sRBD1.15 Fab (Fab, V domains shown)
VH: EVQLVESGGGLVQPGGSLRLSCAASGFNFHNSYIHWVRQAPGKGLEWVASISSYSGYTYYADSVKGRFTISADTSKNTAYLQMNSLRAEDTAVYYCARSYQGQEALDYWGQGTLVTVSS
VL: B1 VL with Y92L, G94F, A95S, I97V
Turning to B2, in experiment [2], the Kd worked out at 0.1 nM, the koff turned out to be 0.00011 s⁻¹ and the kon was found to be 1e+06 M⁻¹ s⁻¹.
